The values that follow come from patent US20090023152A1 (published 2009).

T1: RFX5 (human, UniProt P48382 2-616)
T1 construct: also called RFX5 subunit of RFX
T1 sequence (looked up): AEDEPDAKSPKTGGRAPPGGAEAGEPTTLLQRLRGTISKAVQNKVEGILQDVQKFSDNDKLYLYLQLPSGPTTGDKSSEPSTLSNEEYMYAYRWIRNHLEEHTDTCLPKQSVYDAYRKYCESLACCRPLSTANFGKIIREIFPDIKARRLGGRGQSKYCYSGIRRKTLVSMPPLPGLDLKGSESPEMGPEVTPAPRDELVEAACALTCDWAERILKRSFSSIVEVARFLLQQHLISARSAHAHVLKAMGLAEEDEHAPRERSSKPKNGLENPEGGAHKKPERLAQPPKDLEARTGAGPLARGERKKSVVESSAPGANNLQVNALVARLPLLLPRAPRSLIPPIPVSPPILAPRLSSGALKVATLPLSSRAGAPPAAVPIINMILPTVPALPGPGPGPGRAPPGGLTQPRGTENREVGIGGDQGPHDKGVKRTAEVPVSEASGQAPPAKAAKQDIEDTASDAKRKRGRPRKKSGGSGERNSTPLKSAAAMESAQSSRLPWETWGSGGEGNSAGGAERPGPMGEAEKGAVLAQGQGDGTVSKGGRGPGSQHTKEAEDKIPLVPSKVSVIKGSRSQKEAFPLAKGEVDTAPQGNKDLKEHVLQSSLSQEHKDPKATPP

B1: RFXAP (other, human, UniProt O00287 1-272, looked up)
chain: MEAQGVAEGAGPGAASGVPHPAALAPAAAPTLAPASVAAAASQFTLLVMQPCAGQDEAAAPGGSVGAGKPVRYLCEGAGDGEEEAGEDEADLLDTSDPPGGGESAASLEDLEDEETHSGGEGSSGGARRRGSGGGSMSKTCTYEGCSETTSQVAKQRKPWMCKKHRNKMYKDKYKKKKSDQALNCGGTASTGSAGNVKLEESADNILSIVKQRTGSFGDRPARPTLLEQVLNQKRLSLLRSPEVVQFLQKQQQLLNQQVLEQRQQQFPGTSM
notes: also called RFXAP subunit of RFX
B2: FLAG-RFXANK (other)
chain: DYKDDDDKMELTQPAEDLIQTQQTPASELGDPEDPGEEAADGSDTVVLSLFPCTPEPVNPEPDASVSSPQAGSSLKHSTTLTNRQRGNEVSALPATLDSLSIHQLAAQGELDQLKEHLRKGDNLVNKPDERGFTPLIWASAFGEIETVRFLLEWGADPHILAKERESALSLASTGGYTDIVGLLLERDVDINIYDWNGGTPLLYAVRGNHVKCVEALLARGADLTTEADSGYTPMDLAVALGYRKVQQVIENHILKLFQSNLVPADPE
notes: In vitro translated

Experiment [1] deals with MHC-II enhanceosome assembled on the DRA promoter fragment (human) (UniProt P48382). Nature of the experiment: promoter pull-down from crude cell extracts, immunoblot.
In the next experiment the target is T1, RFX5. The experiment can be described thus: EMSA supershift of co-translated subunits on X box probe.
The experiment “RFXAP” has as its target B1. The description is as above.

“CIITA (wild type) (from UniProt P33076 1-1130)”: the percent of the CIITA recruited in experiment [1] is less than 1%.

With B1, the binding result in the experiment with RFX5 is reported as “binds”.

On to B2, for which the binding result with RFXAP and with RFX5 was “binds” in each case.
